B1: Pistol ribozyme (parent)
chain: GGGUCGUUGUUCCAUAAUCGCGUGGAUAUGGCACGCAAGUUUCUACCGGGCACCGUAAAUGUCCGACUGGAGCCGUUCGGGCGGCUAUAAACAGACCUCAGGCCCGAAGCGUGGCGGCACCUGCCGCCGGUGGUAAAAAAGAUCGGAAGAGCACACGUCU

Variants of: B1
Assay: aptazyme ON/OFF ratio, guanine; higher = stronger switching; co-transcriptional cleavage with and without guanine
With U7G U8A U10C U11A C12U C13G the “aptazyme ON/OFF ratio” value was 1.19. With U7G U8A U10C U11A C12U C13A the “aptazyme ON/OFF ratio” value was 1.3. In the case of U7G U8A U10C U11A C12U C13U, the “aptazyme ON/OFF ratio” value is reported as 1.34. For U7G U8A U10G C12G C13U, the “aptazyme ON/OFF ratio” value was 1.27. In the case of U7G U8A U10G C12G C13A, the “aptazyme ON/OFF ratio” value is reported as 1.25. In the case of U7G U8A U10G C12G C13G, the “aptazyme ON/OFF ratio” value is reported as 1.18. With U7G U8C C12G C13G the “aptazyme ON/OFF ratio” value was 1.08. For U7G U8C C12G C13A, the “aptazyme ON/OFF ratio” value was 1.08. With U7G U8C C12G C13U the “aptazyme ON/OFF ratio” value was 1.19. With U7G U8A U10C U11C the “aptazyme ON/OFF ratio” value was 1.11. For U7G U8A U10C U11G, the “aptazyme ON/OFF ratio” value was 2.09. In the case of U7G U8A U10C U11A, the “aptazyme ON/OFF ratio” value is reported as 2.3. For U7G U8A U11A C13U, the “aptazyme ON/OFF ratio” value was 1.4. With U7G U8A U11A C13A the “aptazyme ON/OFF ratio” value was 1.45. For U7G U8A U11A C13G, the “aptazyme ON/OFF ratio” value was 1.15. With U7G U8A U10G U11A C13A the “aptazyme ON/OFF ratio” value was 1.18. In the case of U7G U8A U10G U11A C13U, the “aptazyme ON/OFF ratio” value is reported as 1.4. With U7G U8A U10G U11A C13G the “aptazyme ON/OFF ratio” value was 1.23. With U7G U8A U11A C12U C13G the “aptazyme ON/OFF ratio” value was 1.26. With U7G U8A U11A C12U C13A the “aptazyme ON/OFF ratio” value was 1.31. For U7G U8A U11A C12U C13U, the “aptazyme ON/OFF ratio” value was 1.36. For U7G U8C G9A U10C U11A C12A C13A, the “aptazyme ON/OFF ratio” value was 1.15. For U7G U8C G9A U10C U11A C12A C13U, the “aptazyme ON/OFF ratio” value was 1.14. With U7G U8C G9A U10C U11A C12A C13G the “aptazyme ON/OFF ratio” value was 1.11. For U7G U8A U11C C12U C13G, the “aptazyme ON/OFF ratio” value was 1.09. In the case of U7G U8A U11C C12U C13U, the “aptazyme ON/OFF ratio” value is reported as 1.47. With U7G U8A U11C C12U C13A the “aptazyme ON/OFF ratio” value was 1.32. In the case of U7G U8A U10G U11G C12G C13A, the “aptazyme ON/OFF ratio” value is reported as 1.15. For U7G U8A U10G U11G C12G C13G, the “aptazyme ON/OFF ratio” value was 0.981. In the case of U7G U8A U10G U11G C12G C13U, the “aptazyme ON/OFF ratio” value is reported as 1.7. For U7G U8A U10G C12A, the “aptazyme ON/OFF ratio” value was 1.03. In the case of U7G U8A U10G C12G, the “aptazyme ON/OFF ratio” value is reported as 1.13. For U7G U8A U10G C12U, the “aptazyme ON/OFF ratio” value was 1.17. With U7G U8A U10G U11C C12U C13G the “aptazyme ON/OFF ratio” value was 1.52. In the case of U7G U8A U10G U11C C12U C13A, the “aptazyme ON/OFF ratio” value is reported as 1.46. With U7G U8A U10G U11C C12U C13U the “aptazyme ON/OFF ratio” value was 1.1. For U7G U8C G9A U10C U11G C12G C13G, the “aptazyme ON/OFF ratio” value was 1.08. With U7G U8C G9A U10C U11G C12G C13U the “aptazyme ON/OFF ratio” value was 1.05. For U7G U8C G9A U10C U11G C12G C13A, the “aptazyme ON/OFF ratio” value was 1.08. With U7G U8C G9A U10C U11C C12A the “aptazyme ON/OFF ratio” value was 1.16. For U7G U8C G9A U10C U11C C12G, the “aptazyme ON/OFF ratio” value was 1.16. In the case of U7G U8C G9A U10C U11C C12U, the “aptazyme ON/OFF ratio” value is reported as 1.09. In the case of U7G U8C C12U C13G, the “aptazyme ON/OFF ratio” value is reported as 1.19. For U7G U8C C12U C13A, the “aptazyme ON/OFF ratio” value was 1.05. For U7G U8C C12U C13U, the “aptazyme ON/OFF ratio” value was 1.07. In the case of U7G U8A U10G U11A C12G C13G, the “aptazyme ON/OFF ratio” value is reported as 1.25. In the case of U7G U8A U10G U11A C12G C13U, the “aptazyme ON/OFF ratio” value is reported as 1.23. For U7G U8A U10G U11A C12G C13A, the “aptazyme ON/OFF ratio” value was 1.11. For U7G U8A U11A, the “aptazyme ON/OFF ratio” value was 2.25. With U7G U8A U11C the “aptazyme ON/OFF ratio” value was 2.05. With U7G U8A U11G the “aptazyme ON/OFF ratio” value was 1.24. For U7G U8C G9A U10C U11G C13U, the “aptazyme ON/OFF ratio” value was 1.24. For U7G U8C G9A U10C U11G C13A, the “aptazyme ON/OFF ratio” value was 1.16. In the case of U7G U8C G9A U10C U11G C13G, the “aptazyme ON/OFF ratio” value is reported as 1.27. In the case of U7G U8C G9A U10C U11A, the “aptazyme ON/OFF ratio” value is reported as 3.52. With U7G U8C G9A U10C U11G the “aptazyme ON/OFF ratio” value was 1.5. With U7G U8C G9A U10C U11C the “aptazyme ON/OFF ratio” value was 1.16. With U7G U8A U11C C12G the “aptazyme ON/OFF ratio” value was 1.24. For U7G U8A U11C C12U, the “aptazyme ON/OFF ratio” value was 1.41. With U7G U8A U11C C12A the “aptazyme ON/OFF ratio” value was 1.29. For U7G U8C G9A U10A U11A C12U C13G, the “aptazyme ON/OFF ratio” value was 1.15. With U7G U8C G9A U10A U11A C12U C13A the “aptazyme ON/OFF ratio” value was 1.13. In the case of U7G U8C G9A U10A U11A C12U C13U, the “aptazyme ON/OFF ratio” value is reported as 1.14. With U7G U8A U10G U11C C12G C13A the “aptazyme ON/OFF ratio” value was 1.4. With U7G U8A U10G U11C C12G C13G the “aptazyme ON/OFF ratio” value was 1.26. With U7G U8A U10G U11C C12G C13U the “aptazyme ON/OFF ratio” value was 1.25. In the case of U7G U8A U10G U11A C12U C13U, the “aptazyme ON/OFF ratio” value is reported as 1.1. For U7G U8A U10G U11A C12U C13G, the “aptazyme ON/OFF ratio” value was 1.37. With U7G U8A U10G U11A C12U C13A the “aptazyme ON/OFF ratio” value was 1.37. In the case of U7G U8A U10G C12U C13U, the “aptazyme ON/OFF ratio” value is reported as 1.12. In the case of U7G U8A U10G C12U C13A, the “aptazyme ON/OFF ratio” value is reported as 1.6. For U7G U8A U10G C12U C13G, the “aptazyme ON/OFF ratio” value was 1.54. For U7G U8C G9A U10C U11A C12U C13A, the “aptazyme ON/OFF ratio” value was 1.08. For U7G U8C G9A U10C U11A C12U C13U, the “aptazyme ON/OFF ratio” value was 1.02. For U7G U8C G9A U10C U11A C12U C13G, the “aptazyme ON/OFF ratio” value was 1.06. For U7G U8A U10G U11G, the “aptazyme ON/OFF ratio” value was 1.59. With U7G U8A U10G U11C the “aptazyme ON/OFF ratio” value was 2.11. With U7G U8A U10G U11A the “aptazyme ON/OFF ratio” value was 2.15. With U7G U8C G9A C12U C13A the “aptazyme ON/OFF ratio” value was 1.03. With U7G U8C G9A C12U C13G the “aptazyme ON/OFF ratio” value was 1.02. For U7G U8C G9A C12U C13U, the “aptazyme ON/OFF ratio” value was 1.03. With U7G U8C G9A U10C U11A C12G the “aptazyme ON/OFF ratio” value was 1.18. With U7G U8C G9A U10C U11A C12A the “aptazyme ON/OFF ratio” value was 1.33.

Source: the RNAGym collection of RNA variant scans (doi:10.1021/acssynbio.7b00057)
